Assay results taken from paper PMC5347347, “A Localized Complex of Two Protein Oligomers Controls the Orientation of Cell Polarity” (mBio, 2017).

How the values were obtained:
[1] = biological target: SpmX-L (SpmX lysozyme-like domain alone, residues 1 to 155) (Caulobacter crescentus); assay: MST; Atto-488-labelled SpmX* or SpmX-L* held constant at 25 nM; PopZ (max 10 μM), DivJ (max 40 μM) or unlabelled SpmX titrated in 2-fold serial dilutions; incubated 10 min at room temperature; fitted by the law of mass action
[2] = biological target: SpmX (purified WT SpmX without its transmembrane region, residues 1 to 355) (Caulobacter crescentus); assay: as above
[3] = biological target: SpmX E19R (purified) (Caulobacter crescentus); assay: SEC; analytical size exclusion, Superdex 200 Increase 10/300 GL; apparent masses from a Bio-Rad gel filtration standard; purified SpmX variants alone
[4] = biological target: PopZ (purified, His-tagged) (Caulobacter crescentus); assay: SPR; PopZ immobilised on the sensor chip; 2-fold serial dilutions of WT SpmX or SpmX-L injected, with washes between injections
[5] = biological target: T1, DivJ histidine kinase (purified without its TM regions, His-tagged) (Caulobacter crescentus, UniProt Q03228 189-597); assay: MST; Atto-488-labelled SpmX* or SpmX-L* held constant at 25 nM; PopZ (max 10 μM), DivJ (max 40 μM) or unlabelled SpmX titrated in 2-fold serial dilutions; incubated 10 min at room temperature; fitted by the law of mass action; details: both partners purified
T1 construct: DivJ histidine kinase, Caulobacter crescentus, purified without its TM regions (the cytoplasmic portion); Construct limits are expected in Text S1; also called cytoplasmic portion of DivJ; source: purified, His-tagged
T1 sequence (looked up): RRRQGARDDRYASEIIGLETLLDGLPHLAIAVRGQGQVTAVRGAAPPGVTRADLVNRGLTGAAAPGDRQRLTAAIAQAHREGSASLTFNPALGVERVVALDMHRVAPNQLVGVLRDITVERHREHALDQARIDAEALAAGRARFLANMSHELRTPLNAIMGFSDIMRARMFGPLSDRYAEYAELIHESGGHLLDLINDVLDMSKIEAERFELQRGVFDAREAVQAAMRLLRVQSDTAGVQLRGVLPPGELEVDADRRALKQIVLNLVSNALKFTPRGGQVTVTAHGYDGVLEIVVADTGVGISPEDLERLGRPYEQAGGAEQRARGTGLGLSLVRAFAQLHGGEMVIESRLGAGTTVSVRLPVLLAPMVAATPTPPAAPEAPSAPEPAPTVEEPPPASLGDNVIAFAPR

[6] = biological target: the molecule itself; assay: as above

Chain of PopZ (purified, His-tagged) (Caulobacter crescentus) (A0A0H3C7Y4 entry or part of it): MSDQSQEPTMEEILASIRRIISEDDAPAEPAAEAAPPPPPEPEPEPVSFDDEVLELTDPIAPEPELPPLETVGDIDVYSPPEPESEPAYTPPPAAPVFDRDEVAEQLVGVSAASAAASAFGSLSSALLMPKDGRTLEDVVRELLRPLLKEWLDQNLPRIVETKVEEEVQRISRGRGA

Molecule: DivJ histidine kinase (purified without its TM regions, His-tagged) (from UniProt Q03228 189-597) (domain or fragment)
- Kd [1]: 6300 nM

Molecule: PopZ (purified, His-tagged) (natural protein)
- Kd [1]: 120 nM
- Kd [2]: 600 nM

Molecule: SpmX E19R (purified) (domain or fragment)
- stoichiometry N [3]: 4

Molecule: SpmX-L (SpmX lysozyme-like domain alone, residues 1 to 155) (domain or fragment)
- overall SPR response relative to WT SpmX at comparable concentrations [4]: 2 fold

B1: SpmX (purified WT SpmX without its transmembrane region, residues 1 to 355) (domain or fragment, Caulobacter crescentus, UniProt A0A0H3C9Y4 1-355, looked up)
chain: MKPRHQVSRAAVDLIKRFEGYRQKAAQLPDGRWTVGYGHTLTAREGASVSEKDAEALLLYDLISVAHSVNEHTYTPLNQNQFDALVCFAFNIGLDNFLRSGVLRRINEGSLLQAACAMEMWRKADFEGERIVIDALVRRRSAEKTLFLTPANGEWVPAPSPVLRPKVDYDASCAVPKQTPATVNTRTEGDRVIAQREEGLPLNVVVPEEDAPTATEQSAAAVAARLEAILPETPSAPASMAKPAMRQDDLGLPEPPAPTQPAAMEPAPVLFEAEPQPAPVEPPPAAPVEFTPFRLTPQASEQAEAPVEAPAPTRPAPSEPTLFGAPATGSSVFNLDGFSTSEDATVGVMDVPLVE
modifications: Atto-488 on lysine residues, approximately one dye molecule per protein (only the labelled copy SpmX* held constant in MST; unlabelled as titrant and in SPR, SEC and native gel)
notes: purified without the TM region, residues 1 to 355; predicted monomeric mass 40.1 kDa; Forms higher-order oligomers (void volume in SEC, ladder in native gel); Construct details are in Text S1; also called SpmX-ΔTM; source: purified, His-tagged
- Kd [1]: 630 nM
- Kd [5]: 510 ± 90 nM
- Kd [6]: 360 ± 50 nM
